Laboratory results from article PMC12561191.

Molecular target: BAX, the ligand protein coupled on the SPR chip, Q07812
Assay: SPR
Settings: natural protein; chains chain; remark: other sources report otherwise

BAX, the ligand protein coupled on the SPR chip, Q07812, sequence (Q07812 whole entry): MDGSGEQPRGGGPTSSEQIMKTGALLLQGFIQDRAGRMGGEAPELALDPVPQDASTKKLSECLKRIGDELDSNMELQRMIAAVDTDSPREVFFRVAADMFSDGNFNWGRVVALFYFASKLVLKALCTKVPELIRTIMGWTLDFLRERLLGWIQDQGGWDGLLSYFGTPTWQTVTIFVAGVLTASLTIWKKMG

B1: recombinant human MANF (rhMANF) protein, P55145 25-182 (protein)
chain: LRPGDCEVCISYLGRFYQDLKDRDVTFSPATIENELIKFCREARGKENRLCYYIGATDDAATKIINEVSKPLAHHIPVEKICEKLKKKDSQICELKYDKQIDLSTVDLKKLRVKELKKILDDWGETCKGCAEKSDYIRKINELMPKYAPKAASARTDL
- Kd: 11.3 µM
